The target of the assay is human CD19 (human) (UniProt P15391). The experiment in a line: cell-based or functional assay.

The results in this text go back to patent publication US20200354451A1.

UniProt P15391, sequence (P15391 20-556): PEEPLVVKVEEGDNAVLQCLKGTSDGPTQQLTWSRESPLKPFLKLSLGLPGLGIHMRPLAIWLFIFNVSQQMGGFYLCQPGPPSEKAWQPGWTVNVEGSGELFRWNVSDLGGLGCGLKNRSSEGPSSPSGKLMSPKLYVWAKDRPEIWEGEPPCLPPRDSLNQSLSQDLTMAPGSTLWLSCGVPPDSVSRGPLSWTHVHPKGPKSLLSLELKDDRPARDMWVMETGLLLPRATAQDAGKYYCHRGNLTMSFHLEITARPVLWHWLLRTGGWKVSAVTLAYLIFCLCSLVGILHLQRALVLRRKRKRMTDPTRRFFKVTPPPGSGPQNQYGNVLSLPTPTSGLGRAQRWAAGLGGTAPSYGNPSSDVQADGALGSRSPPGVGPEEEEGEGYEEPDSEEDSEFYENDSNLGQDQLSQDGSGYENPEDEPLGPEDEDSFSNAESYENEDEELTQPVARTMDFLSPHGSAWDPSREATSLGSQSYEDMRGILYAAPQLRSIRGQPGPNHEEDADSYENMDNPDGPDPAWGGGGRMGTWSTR

Take CD19 CAR (mouse FMC63 scFv, no TF): the IFN-gamma secretion (ELISA), Hela-CD19 target cells is 8870 pg/mL.
